Data published in the supplement of paper PMC7125110.
± gives the standard error. Variants at the floor of the assay were thinned out.

B1: glmS ribozyme (parent)
chain: AUAAAAGCGCCAGAACUACAGAAAUGUAGUUGACGAGGAGGAGGUUUAUCGAAUUUUCGGCGGAUGCCUCCAAA

What was measured:
Conditions in all cases: with glucosamine-6-phosphate
glucosamine-6-phosphate [1] = variants of: B1; assay: self-cleavage kobs at 40 uM GlcN6P; higher = faster cleavage; RNA array
Outline: (§1)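 Sequenced MiSeq chips were the platform: E. coli RNA polymerase transcribed barcoded ribozyme variants on them in situ, and a hybridised Cy3 probe tracked these at 37 °C. After glucosamine-6-phosphate (40 μM to 10 mM) in HEPES/KCl/Mg(OAc)2 buffer was flowed in, tiles were imaged over ~14 h. Signals normalised to baseline and to non-cleaving reference variants were reduced to per-tile medians and fit to one- or two-exponential decays to obtain kobs. kcat and KM were derived through weighted Michaelis–Menten fits across concentrations.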

glucosamine-6-phosphate [2] = variants of: B1; assay: self-cleavage kobs at 160 uM GlcN6P; higher = faster cleavage; RNA array
Outline: as §1

glucosamine-6-phosphate [3] = variants of: B1; assay: self-cleavage kobs at 640 uM GlcN6P; higher = faster cleavage; RNA array
Outline: as §1

glucosamine-6-phosphate [4] = variants of: B1; assay: self-cleavage kobs at 2500 uM GlcN6P; higher = faster cleavage; RNA array
Outline: as §1

glucosamine-6-phosphate [5] = variants of: B1; assay: self-cleavage kobs at 10000 uM GlcN6P; higher = faster cleavage; RNA array
Outline: as §1

Row | Variant | self-cleavage kobs at 40 uM GlcN6P (glucosamine-6-phosphate [1]) | self-cleavage kobs at 160 uM GlcN6P (glucosamine-6-phosphate [2]) | self-cleavage kobs at 640 uM GlcN6P (glucosamine-6-phosphate [3]) | self-cleavage kobs at 2500 uM GlcN6P (glucosamine-6-phosphate [4]) | self-cleavage kobs at 10000 uM GlcN6P (glucosamine-6-phosphate [5])
1 | AUAAAAGCGCCAGAACUACAGAAAUGUAGAUGACGAGGAGGAGGUUUAUCGACUUUUCGUCGGAUGCCUCCAAA [U30A A53C G60U] | < 1e-05 s⁻¹ | < 1e-05 s⁻¹ | < 1e-05 s⁻¹ | < 1e-05 s⁻¹ | –
2 | AUAAAAGCGCCAGAACUACAGAAAUGUAGCUGACGAGGAGGAGGUUUAUCGAAUUUUCCGCGGAUGCCUCCAAA [U30C G59C] | < 1e-05 s⁻¹ | – | < 1e-05 s⁻¹ | < 1e-05 s⁻¹ | < 1e-05 s⁻¹
3 | AUAAAAGCGCCAGAACUACAGAAAUGUAGGUGACGAGGAGGAGGUUUAUCGCAUUUUCGGCGGAUGCCUCCAAA [U30G A52C] | < 1e-05 s⁻¹ | < 1e-05 s⁻¹ | < 1e-05 s⁻¹ | < 1e-05 s⁻¹ | –
4 | AUAAAAGCGCCAGAACUACAGAAAUGUAGGUGACGAGGAGGAGGUUUAUCGAAUUUUCGGCCGAUGCCUCCAAA [U30G G62C] | < 1e-05 s⁻¹ | < 1e-05 s⁻¹ | < 1e-05 s⁻¹ | – | < 1e-05 s⁻¹
5 | AUAAAAGCGCCAGAACUACAGAAAUGUAGCUGACGCGGAGGAGGUUUAUCGAAUUUUCGGCGGAUGCCGCCAAA [U30C A36C U69G] | 0.000181 ± 7.1e-05 s⁻¹ | – | 0.000264 ± 0.00013 s⁻¹ | – | –
6 | AUAAAAGCGCCAGAACUACAGAAAUGUAGCUGACGAGGAGGAGGUUUAUGGAAUUUUCGGCGGAUGCCACCAAA [U30C C50G U69A] | 0.000101 ± 1.6e-05 s⁻¹ | – | – | – | 0.000171 ± 2.6e-05 s⁻¹
7 | AUAAAAGCGCCAGAACUACAGAAAUGUAGCUGACGAGUAGGACGUGUAUCGAAUUUUCGGCGGAUGCCUCCAAA [U30C G38U G43C U46G] | < 1e-05 s⁻¹ | – | < 1e-05 s⁻¹ | – | < 1e-05 s⁻¹
8 | AUAAAAGCGCCAGAACUACAGAAAUGUAGCUGACGAGCAGGAGGUUUAUCGAAUUUUCGGCGGAUGCCUCCAAA [U30C G38C] | < 1e-05 s⁻¹ | – | < 1e-05 s⁻¹ | < 1e-05 s⁻¹ | –
9 | AUAAAAGCGCCAGAACUACAGAAAUGUAGGUGACGAGGAGGACGUUUAUCGAAUUUUCGGCGGAUGCCUCCAAA [U30G G43C] | < 1e-05 s⁻¹ | – | – | < 1e-05 s⁻¹ | < 1e-05 s⁻¹
10 | AUAAAAGCGCCAGAACUACAGAAAUGUAGCUGACGAGGAGGAGGUUUAUCGCAUUUUCGGCGGCUGCCUCCAAA [U30C A52C A64C] | < 1e-05 s⁻¹ | – | – | – | –
11 | AUAAAAGCGCCAGAACUACAGAAAUGUAGGUGACGAGGAGGAGGUUUAUCGAAUUUUCGGCGGAUGCCUUCAAA [U30G C70U] | 0.000299 ± 3.2e-05 s⁻¹ | 0.000471 ± 8.6e-05 s⁻¹ | 0.00108 ± 0.00014 s⁻¹ | 0.00367 ± 0.00096 s⁻¹ | 0.00516 ± 0.00081 s⁻¹
12 | AUAAAAGCGCCAGAACUACAGAAAUGUAGGUCACGAGGGGGAGGCUUAUCGUAUUUUCGGCGAAUGCCUCCAAA [U30G G32C A39G U45C A52U G63A] | < 1e-05 s⁻¹ | – | < 1e-05 s⁻¹ | < 1e-05 s⁻¹ | < 1e-05 s⁻¹
13 | AUAAAAGCGCCAGAACUACAGAAAUGUAGAUGACGAGGAGGAGGUUUAACGAAUUUUCGGCUGAUGCCUCCAAA [U30A U49A G62U] | < 1e-05 s⁻¹ | – | – | – | –
14 | AUAAAAGCGCCAGAACUACAGAAAUGUAGCUGACGAGGAGGAGGUUUAUCGAAUUUUCGGCGGCUGCCUCCAAA [U30C A64C] | < 1e-05 s⁻¹ | – | < 1e-05 s⁻¹ | – | < 1e-05 s⁻¹
15 | AUAAAAGCGCCAGAACUACAGAAAUGUAGAUGACGAGGAGGAGGUUUAUCGAAUUUGCGGCGGAGGCCUCCAAA [U30A U57G U65G] | < 1e-05 s⁻¹ | – | – | – | –
16 | AUAAAAGCGCCAGAACUACAGAAAUGUAGCUGACGAGGAGGACGUUUAUCGAAUUUUCGGCGGAUGCCUCCAAA [U30C G43C] | < 1e-05 s⁻¹ | < 1e-05 s⁻¹ | < 1e-05 s⁻¹ | < 1e-05 s⁻¹ | < 1e-05 s⁻¹
17 | AUAAAAGCGCCAGAACUACAGAAAUGUAGGUGACGAGGAGGAGGUUUCUCGAAUUUUCGGCGGAUGCCUGCAAA [U30G A48C C70G] | < 1e-05 s⁻¹ | – | – | – | –
18 | AUAAAAGCGCCAGAACUACAGAAAUGUAGCUGACGAGGAGGAGGUUCAUCGAAUUUUAGGCGGAAGCCUCCAAA [U30C U47C C58A U65A] | < 1e-05 s⁻¹ | – | – | – | –
19 | AUAAAAGCGCCAGAACUACAGAAAUGUAGCUGACGAGGACGAGGUUUAGCAAAUUUUCGGCGGAUGCCUCCAAA [U30C G40C U49G G51A] | < 1e-05 s⁻¹ | – | – | – | < 1e-05 s⁻¹
20 | AUAAAAGCGCCAGAACUACAGAAAUGUAGCUGACGAGGAGGUGAUUUGUCGAAUUUUCAGCGGAUGCCUCCAAA [U30C A42U G44A A48G G59A] | < 1e-05 s⁻¹ | – | – | < 1e-05 s⁻¹ | –
21 | AUAAAAGCGCCAGAACUACAGAAAUGUAGCUGACGAGGAGGAGGUUUAUCGAAUUUCCGGCGGAUGCCUCCAAA [U30C U57C] | < 1e-05 s⁻¹ | – | < 1e-05 s⁻¹ | – | –
22 | AUAAAAGCGCCAGAACUACAGAAAUGUAGAUGACGAGCAGGAGGUUUAUCGGAUUUUCGGCGGAUGCCACCAAA [U30A G38C A52G U69A] | < 1e-05 s⁻¹ | – | – | < 1e-05 s⁻¹ | < 1e-05 s⁻¹
23 | AUAAAAGCGCCAGAACUACAGAAAUGUAGCUGACGAGGAGGAGGUUUAUAGAAUUUUCGGCGGAAGCCGCCAAA [U30C C50A U65A U69G] | 4.39e-05 ± 1.7e-05 s⁻¹ | – | 0.000207 ± 5.3e-05 s⁻¹ | 5.84e-05 ± 2.3e-05 s⁻¹ | 3.19e-05 ± 1.6e-05 s⁻¹
24 | AUAAAAGCGCCAGAACUACAGAAAUGUAGGUGACGAGGAGGUUGUUUUUCGAAUUUUCUGCGGAUGCCUCCAAA [U30G A42U G43U A48U G59U] | < 1e-05 s⁻¹ | – | – | – | –
25 | AUAAAAGCGCCAGAACUACAGAAAUGUAGGUGACGAGGAGGAGGUUUAUCAAAUUUUCGGCGGAUGCCUCCAAA [U30G G51A] | < 1e-05 s⁻¹ | < 1e-05 s⁻¹ | < 1e-05 s⁻¹ | – | –
26 | AUAAAAGCGCCAGAACUACAGAAAUGUAGAUGACGAGGAGGAGGUUUACCGAAUUUUCGGCGGAUGCCUCCAAA [U30A U49C] | < 1e-05 s⁻¹ | < 1e-05 s⁻¹ | < 1e-05 s⁻¹ | < 1e-05 s⁻¹ | < 1e-05 s⁻¹
27 | AUAAAAGCGCCAGAACUACAGAAAUGUAGGUGACGAGGAGUAGGUUUAUCGAAUUUUCGGCGGAUGCAUCCAAA [U30G G41U C68A] | < 1e-05 s⁻¹ | – | – | – | < 1e-05 s⁻¹
28 | AUAAAAGCGCCAGAACUACAGAAAUGUAGCUGACGAGGAGGAGGUUUAACGAAUUUUCGCCGGAUGCCUCCAAA [U30C U49A G60C] | < 1e-05 s⁻¹ | – | < 1e-05 s⁻¹ | – | –
